Measurements as given in patent US20240190962A1.

Columns and labels:
Assay in all cases: cell-based or functional assay
[1] = molecular target: T1, IFN-γ receptor (IFNGR1, IFNGR2) (UniProt P15260)
T1 sequence (looked up) 1: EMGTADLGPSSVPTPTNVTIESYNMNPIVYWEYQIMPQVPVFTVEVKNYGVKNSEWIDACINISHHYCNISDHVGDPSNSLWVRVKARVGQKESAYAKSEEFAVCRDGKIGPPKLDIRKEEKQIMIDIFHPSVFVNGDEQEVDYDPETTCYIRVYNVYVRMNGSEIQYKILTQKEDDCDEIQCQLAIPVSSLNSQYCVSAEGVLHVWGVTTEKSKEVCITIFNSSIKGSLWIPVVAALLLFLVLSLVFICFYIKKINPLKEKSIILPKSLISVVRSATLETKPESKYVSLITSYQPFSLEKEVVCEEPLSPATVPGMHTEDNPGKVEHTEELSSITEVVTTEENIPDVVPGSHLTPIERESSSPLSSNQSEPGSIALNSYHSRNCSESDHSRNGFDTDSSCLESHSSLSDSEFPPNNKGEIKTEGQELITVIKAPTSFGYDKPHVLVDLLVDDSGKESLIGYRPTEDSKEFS
T1 sequence (looked up) 2: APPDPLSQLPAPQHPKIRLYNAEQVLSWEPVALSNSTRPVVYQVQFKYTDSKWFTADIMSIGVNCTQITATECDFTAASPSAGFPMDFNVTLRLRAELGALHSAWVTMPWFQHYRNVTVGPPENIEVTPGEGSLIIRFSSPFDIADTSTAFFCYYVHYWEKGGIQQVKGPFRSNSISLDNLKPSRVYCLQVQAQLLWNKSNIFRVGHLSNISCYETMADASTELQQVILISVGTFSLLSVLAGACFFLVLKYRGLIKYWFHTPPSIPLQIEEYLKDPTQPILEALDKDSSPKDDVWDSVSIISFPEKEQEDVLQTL

[2] = molecular target: human IL-10 receptor (hIL-10Rα, hIL-10Rβ) (human) (UniProt Q13651)
Sequence of human IL-10 receptor (hIL-10Rα, hIL-10Rβ) (human) (Q13651 22-578, chain 1 of 2): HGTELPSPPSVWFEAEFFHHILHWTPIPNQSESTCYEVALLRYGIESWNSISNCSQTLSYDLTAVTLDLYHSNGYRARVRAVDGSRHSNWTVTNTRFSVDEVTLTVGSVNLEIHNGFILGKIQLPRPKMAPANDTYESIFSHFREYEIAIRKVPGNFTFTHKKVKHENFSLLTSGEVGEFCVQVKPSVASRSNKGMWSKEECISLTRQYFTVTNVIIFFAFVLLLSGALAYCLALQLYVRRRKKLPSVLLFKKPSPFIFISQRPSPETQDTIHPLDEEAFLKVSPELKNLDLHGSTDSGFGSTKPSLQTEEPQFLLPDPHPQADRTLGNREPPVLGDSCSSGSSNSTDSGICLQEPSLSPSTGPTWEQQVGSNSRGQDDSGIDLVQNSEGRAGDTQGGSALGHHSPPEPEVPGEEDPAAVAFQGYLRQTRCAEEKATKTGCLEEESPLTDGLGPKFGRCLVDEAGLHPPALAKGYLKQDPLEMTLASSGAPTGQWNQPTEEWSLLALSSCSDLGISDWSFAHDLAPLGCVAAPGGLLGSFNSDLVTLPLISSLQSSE
Sequence of human IL-10 receptor (hIL-10Rα, hIL-10Rβ) (human) (Q08334 20-325, chain 2 of 2, further chain): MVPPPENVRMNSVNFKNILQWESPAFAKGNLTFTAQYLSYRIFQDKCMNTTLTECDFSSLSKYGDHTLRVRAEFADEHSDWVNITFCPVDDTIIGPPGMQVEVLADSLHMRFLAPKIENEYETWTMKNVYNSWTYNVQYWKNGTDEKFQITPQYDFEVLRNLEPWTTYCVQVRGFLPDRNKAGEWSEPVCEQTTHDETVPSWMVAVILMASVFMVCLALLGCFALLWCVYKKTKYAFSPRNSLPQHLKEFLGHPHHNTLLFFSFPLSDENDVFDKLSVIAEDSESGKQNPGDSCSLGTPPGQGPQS

[3] = molecular target: human IL-12 receptor complex (IL-12Rβ1, IL-12Rβ2) (human) (UniProt P42701)
Sequence of human IL-12 receptor complex (IL-12Rβ1, IL-12Rβ2) (human) (Q99665 24-862, chain 2 of 2, other chains not shown): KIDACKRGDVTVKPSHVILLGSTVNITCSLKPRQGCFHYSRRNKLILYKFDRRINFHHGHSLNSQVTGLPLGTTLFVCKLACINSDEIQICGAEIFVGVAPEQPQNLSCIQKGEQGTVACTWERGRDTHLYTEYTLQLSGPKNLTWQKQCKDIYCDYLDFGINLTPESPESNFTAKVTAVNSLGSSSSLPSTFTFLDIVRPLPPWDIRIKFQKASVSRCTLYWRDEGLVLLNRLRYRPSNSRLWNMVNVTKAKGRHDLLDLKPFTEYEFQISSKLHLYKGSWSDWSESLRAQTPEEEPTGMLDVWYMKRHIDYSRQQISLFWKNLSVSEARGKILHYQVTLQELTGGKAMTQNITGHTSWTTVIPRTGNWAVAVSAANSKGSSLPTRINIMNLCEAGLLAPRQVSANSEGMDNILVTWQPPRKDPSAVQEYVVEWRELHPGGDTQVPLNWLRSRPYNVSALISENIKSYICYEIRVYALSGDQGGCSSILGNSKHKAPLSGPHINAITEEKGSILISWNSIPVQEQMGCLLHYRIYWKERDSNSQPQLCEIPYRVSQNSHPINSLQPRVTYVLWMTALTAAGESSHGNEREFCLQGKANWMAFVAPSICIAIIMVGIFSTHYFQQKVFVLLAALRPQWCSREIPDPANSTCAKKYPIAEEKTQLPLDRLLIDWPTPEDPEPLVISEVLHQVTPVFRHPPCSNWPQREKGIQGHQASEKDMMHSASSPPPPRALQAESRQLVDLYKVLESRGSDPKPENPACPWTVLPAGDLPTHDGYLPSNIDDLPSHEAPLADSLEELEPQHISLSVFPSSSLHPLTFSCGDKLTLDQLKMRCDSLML

[4] = molecular target: IL-23 receptor complex (IL-12Rβ1, IL-23R) (UniProt P42701)
Sequence of IL-23 receptor complex (IL-12Rβ1, IL-23R) (Q5VWK5 24-629 limits assumed, chain 2 of 2, other chains not shown): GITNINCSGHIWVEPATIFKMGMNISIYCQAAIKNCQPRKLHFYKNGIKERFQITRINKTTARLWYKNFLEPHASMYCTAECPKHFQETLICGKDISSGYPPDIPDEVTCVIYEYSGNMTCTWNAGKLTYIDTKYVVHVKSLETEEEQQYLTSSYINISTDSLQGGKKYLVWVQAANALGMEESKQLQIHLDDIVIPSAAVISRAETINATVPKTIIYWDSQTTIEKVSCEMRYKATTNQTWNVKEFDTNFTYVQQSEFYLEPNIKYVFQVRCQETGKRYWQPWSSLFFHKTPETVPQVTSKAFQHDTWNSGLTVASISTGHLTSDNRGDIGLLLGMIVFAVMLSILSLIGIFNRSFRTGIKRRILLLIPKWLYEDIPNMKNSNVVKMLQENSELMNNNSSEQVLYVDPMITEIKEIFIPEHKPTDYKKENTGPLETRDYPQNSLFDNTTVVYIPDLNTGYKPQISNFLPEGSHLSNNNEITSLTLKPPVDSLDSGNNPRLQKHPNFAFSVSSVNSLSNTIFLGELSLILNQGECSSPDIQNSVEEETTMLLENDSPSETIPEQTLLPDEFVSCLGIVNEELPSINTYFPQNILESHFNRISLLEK

Sequence of recombinant human IFN-γ (free state) (P01579 24-166 limits assumed): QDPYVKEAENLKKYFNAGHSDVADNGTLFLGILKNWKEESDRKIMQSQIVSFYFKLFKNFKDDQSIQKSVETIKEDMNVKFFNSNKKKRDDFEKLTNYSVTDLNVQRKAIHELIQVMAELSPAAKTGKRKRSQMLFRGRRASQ
Sequence of recombinant human IL-12 (free state) (P29460 23-328 limits assumed): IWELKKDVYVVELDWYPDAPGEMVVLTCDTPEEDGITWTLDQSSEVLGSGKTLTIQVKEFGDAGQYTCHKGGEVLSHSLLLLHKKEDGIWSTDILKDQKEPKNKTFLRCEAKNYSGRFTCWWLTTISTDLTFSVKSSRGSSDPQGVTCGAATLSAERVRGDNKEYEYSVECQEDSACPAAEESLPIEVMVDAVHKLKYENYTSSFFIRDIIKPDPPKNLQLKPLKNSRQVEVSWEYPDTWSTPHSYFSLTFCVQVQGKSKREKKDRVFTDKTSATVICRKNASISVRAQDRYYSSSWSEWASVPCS
Sequence of recombinant human IL-12 (free state) (P29459 23-219 limits assumed): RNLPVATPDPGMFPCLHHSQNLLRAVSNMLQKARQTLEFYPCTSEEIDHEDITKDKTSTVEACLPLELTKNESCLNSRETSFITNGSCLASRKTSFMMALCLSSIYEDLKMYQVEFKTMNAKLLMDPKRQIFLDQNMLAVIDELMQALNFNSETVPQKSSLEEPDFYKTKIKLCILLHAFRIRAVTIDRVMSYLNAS
Sequence of recombinant human IL-23 (free state) (P29460 23-328 limits assumed): as the sequence (P29460 23-328 limits assumed) above
Sequence of recombinant human IL-23 (free state) (Q9NPF7 20-189 limits assumed): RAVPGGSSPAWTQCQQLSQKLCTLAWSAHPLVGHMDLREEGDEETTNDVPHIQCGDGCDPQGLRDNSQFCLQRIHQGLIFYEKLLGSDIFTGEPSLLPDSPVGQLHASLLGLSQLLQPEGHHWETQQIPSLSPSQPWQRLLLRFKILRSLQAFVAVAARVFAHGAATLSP

recombinant human IFN-γ (free state) (from UniProt P01579 24-166) (ligand)
IFN-γ biological activity, HEK-IFN-γ cells [1]: 100% | IFN-γ biological activity, HEK-PD-1-IFN-γ cells [1]: 100% | PD-L1 expression (anti-PD-L1 APC, FACS), HEK-CD4-IFN-γ cells [1]: 67 MFI | PD-L1 expression (anti-PD-L1 APC, FACS), HEK-IFN-γ cells [1]: 75 MFI

recombinant human IL-10 (free state) (from UniProt P22301 19-178) (ligand)
IL-10 biological activity, HEK-IL-10 cells [2]: 100% | IL-10 biological activity, HEK-PD-1-IL-10 cells [2]: 100%

recombinant human IL-12 (free state) (from UniProt P29460 23-328; P29459 23-219) (ligand)
IL-12 biological activity (IFN-γ release), CD4+ T cells [3]: 100% | IL-12 biological activity (IFN-γ release), CD8+ T cells [3]: 100% | IL-12 biological activity, HEK-IL-12 [3]: 100% | IL-12 biological activity, HEK-IL-12-PD-1 [3]: 100% | IL-12 biological activity, HEK-IL-12-PD-1 (high) [3]: 100% | IL-12 biological activity, HEK-IL-12-PD-1 (low) [3]: 100% | IL-12 biological activity, HEK-IL-12 cells [3]: 100% | IL-12 biological activity, HEK-PD-1-IL-12 [3]: 100% | IL-12 biological activity, HEK-PD-1-IL-12 cells [3]: 100% | PBMC (IFN-γ ng/ml) [3]: 2300 ng/mL

recombinant human IL-23 (free state) (from UniProt P29460 23-328; Q9NPF7 20-189) (ligand)
IL-23 biological activity (IFN-γ release), CD4+ T cells [4]: 100% | IL-23 biological activity (IFN-γ release), CD8+ T cells [4]: 100% | IL-23 biological activity, HEK-IL-23 cells [4]: 100% | IL-23 biological activity, HEK-PD-1-IL-23 cells [4]: 100%
